Results reported in article PMC13544220, “Glycemic and bodyweight effects of GIPR coding variation reflect differences in surface expression and intrinsic functional impairment” (Science Advances, 2026).
Changes are numbered by the printed parent chain. In names and notes the source's numbering stands.

How the values were obtained:
Type in all cases: cell-based, human
[1] = test system: wild-type and variant SNAP-GIPR; test: cADDis cAMP imaging in AD293 cells, ensemble, expression-matched and per decile; details: Fig S3F, cADDis, mean;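 further: Ensemble cells as % of IBMX/FSK response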
Procedure, shortened: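 AD293 cells reverse-transfected with wild-type or variant SNAP-GIPR plus cADDis Green Up sensor, variants run in parallel. After 24 h, surface receptor labelled with SNAP-Surface Alexa Fluor 647 (500 nM); single-cell cADDis fluorescence imaged at 37 °C in KRBH, 6 mM glucose, 0.1% BSA. Responses given ensemble, expression-matched by wild-type deciles, or per own decile.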

[2] = test system: wild-type and variant SNAP-GIPR; test: Surface SNAP-GIPR expression (SNAP-tag labelling) in AD293 cells; details: for AD293 Surface: Fig S3E, mean; for Surface SNAP-GIPR expression: sheet Fig 1C;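 on all read-outs here: scaled to the experimental average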
Procedure, shortened: (§1)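 Read-out: whole-cell fluorescence of surface-only SNAP label (Alexa Fluor 647, 500 nM, 10 min, RT), wide-field 20X, several FOVs per well. Flat-field corrected, phase-contrast masked, nontransfected-well signal subtracted; normalized to experiment mean or wild-type.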

[3] = test system: wild-type and variant SNAP-GIPR; test: Constitutive and agonist-mediated internalization, reversible SNAP-tag labelling, INS-1 cells; parameters: key to Internalisation, GIP-only / Internalisation, Vehicle / Internalisation, +GIP: % internalization: residual fluorescence after Mesna vs pre-Mesna; details: Mean; for +GIP internalisation (100 nM) / GIP-specific internalisation (100 nM) / Constitutive internalisation (100 nM): Fig 4G; for +GIP internalisation (100 nM) / GIP-specific internalisation (100 nM): GIP 100 nM; for Internalisation, +GIP / Internalisation, GIP-only / Internalisation, Vehicle: Fig S4C, INS-1
Procedure, shortened: (§2)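 Percentage internalization is read as the fraction of specific SNAP fluorescence that survives Mesna stripping, compared with the image taken before Mesna. Wells are imaged in TNE buffer at pH 8.6 and again after 10 min.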

[4] = test system: wild-type and variant SNAP-GIPR; test: Single-concentration GIP cAMP response by HTRF in AD293 cells; details: Fig S3F, HTRF, mean;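 further: ratio to experiment-wide average response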
Description: (§3) All variants were tested in parallel on each occasion to control for transfection efficiency differences between experiments.

[5] = test system: wild-type and variant SNAP-GIPR; test: Surface SNAP-GIPR expression (SNAP-tag labelling) in INS-1 cells; details: Fig 4G; Mean
Procedure, shortened: as §1

[6] = test system: wild-type and variant SNAP-GIPR; test: Single-concentration GIP cAMP response by HTRF in INS-1 cells; details: Fig S3E, mean
Description: as §3

[7] = test system: wild-type and variant SNAP-GIPR; test: Constitutive and agonist-mediated internalization, reversible SNAP-tag labelling, AD293 cells; parameters: key to Internalisation, Vehicle / Internalisation, +GIP / Internalisation, GIP-only: % internalization: residual fluorescence after Mesna vs pre-Mesna; Surface expression: unit not given here; details: Mean; for +GIP internalisation (100 nM) / GIP-specific internalisation (100 nM) / Constitutive internalisation (100 nM) / Surface expression: Fig 4E; for +GIP internalisation (100 nM) / GIP-specific internalisation (100 nM): GIP 100 nM; for Internalisation, +GIP / Internalisation, GIP-only / Internalisation, Vehicle: Fig S4C, AD293
Procedure, shortened: as §2

[8] = column repeated, paired with cAMP 100 nM

B1: L262V (protein, UniProt P48546 22-466, looked up, variant L262V)
Gastric inhibitory …: RAETGSKGQTAGELYQRWERYRRECQETLAAAEPPSGLACNGSFDMYVCWDYAAPNATARASCPWYLPWHHHVAAGFVLRQCGSDGQWGLWRDHTQCENPEKNEAFLDQRLILERLQVMYTVGYSLSLATLLLALLILSLFRRLHCTRNYIHINLFTSFMLRAAAILSRDRLLPRPGPYLGDQALALWNQALAACRTAQIVTQYCVGANYTWLLVEGVYLHSLLVLVGGSEEGHFRYYLLVGWGAPALFVIPWVIVRYLYENTQCWERNEVKAIWWIIRTPILMTILINFLIFIRILGILLSKLRTRQMRCRDYRLRLARSTLTLVPLLGVHEVVFAPVTEEQARGALRFAKLGFEIFLSSFQGFLVSVLYCFINKEVQSEIRRGWHHCRLRRSLGEEQRQLPERAFRALPSGSGPGEVPTSRGLSSGTLPGPGNEASRELESYC
- AD293 100 pM cADDis [1]: 31.1728
- AD293 100 nM cADDis [1]: 39.27
- AD293 Surface [2, 8]: 1.3
- AD293 Surface ([2]; paired with cAMP 100 pM): 1.3
- Surface SNAP-GIPR expression ([2]; replicate 1): 1.375
- Surface SNAP-GIPR expression ([2]; replicate 2): 0.996
- Surface SNAP-GIPR expression ([2]; replicate 3): 2.76
- Surface SNAP-GIPR expression ([2]; replicate 4): 0.9875
- Surface SNAP-GIPR expression ([2]; replicate 5): 1.257
- Surface SNAP-GIPR expression ([2]; replicate 6): 2.431
- Surface SNAP-GIPR expression ([2]; replicate 7): 1.521
- Surface SNAP-GIPR expression ([2]; replicate 8): 0.9638
- Surface SNAP-GIPR expression ([2]; replicate 9): 1.328
- Surface SNAP-GIPR expression ([2]; replicate 10): 1.382
- Surface SNAP-GIPR expression ([2]; replicate 11): 1.153
- Surface SNAP-GIPR expression ([2]; replicate 12): 1.188
- Surface SNAP-GIPR expression ([2]; replicate 13): 1.165
- Surface SNAP-GIPR expression ([2]; replicate 14): 1.166
- Surface SNAP-GIPR expression ([2]; replicate 15): 1.23
- Surface SNAP-GIPR expression ([2]; replicate 16): 1.047
- Surface SNAP-GIPR expression ([2]; replicate 17): 1.27
- Surface SNAP-GIPR expression ([2]; replicate 18): 1.238
- Surface SNAP-GIPR expression ([2]; replicate 19): 0.9807
- Surface SNAP-GIPR expression ([2]; replicate 20): 0.8682
- Surface SNAP-GIPR expression ([2]; replicate 21): 1.136
- Surface SNAP-GIPR expression ([2]; replicate 22): 1.402
- Surface SNAP-GIPR expression ([2]; replicate 23): 1.295
- Surface SNAP-GIPR expression ([2]; replicate 24): 1.372
- Surface SNAP-GIPR expression ([2]; replicate 25): 1.308
- Surface SNAP-GIPR expression ([2]; replicate 26): 1.104
- Surface SNAP-GIPR expression ([2]; replicate 27): 1.5
- Surface SNAP-GIPR expression ([2]; replicate 28): 1.095
- Surface SNAP-GIPR expression ([2]; replicate 29): 1.555
- Surface SNAP-GIPR expression ([2]; replicate 30): 1.424
- Surface SNAP-GIPR expression ([2]; replicate 31): 1.568
- Surface SNAP-GIPR expression ([2]; replicate 32): 1.239
- Surface SNAP-GIPR expression ([2]; replicate 33): 1.116
- Surface SNAP-GIPR expression ([2]; replicate 34): 1.325
- Surface SNAP-GIPR expression ([2]; replicate 35): 1.446
- Surface SNAP-GIPR expression ([2]; replicate 36): 1.136
- Surface SNAP-GIPR expression ([2]; replicate 37): 0.8646
- Surface SNAP-GIPR expression ([2]; replicate 38): 1.251
- Surface SNAP-GIPR expression ([2]; replicate 39): 1.117
- Surface SNAP-GIPR expression ([2]; replicate 40): 1.314
- Surface SNAP-GIPR expression ([2]; replicate 41): 1.425
- +GIP internalisation (100 nM) [3]: 0.5955
- GIP-specific internalisation (100 nM) [3]: 0.1388
- Constitutive internalisation (100 nM) [3]: 0.4567
- Internalisation, +GIP [3]: 50.3417
- Internalisation, GIP-only [3]: 11.92
- Internalisation, Vehicle [3]: 38.4217
- AD293 100 pM HTRF [4]: 1.19
- AD293 100 nM HTRF [4]: 1.331
- Surface expression [5]: 1.205
- INS-1 cAMP (100 nM) [6]: 1.234
- +GIP internalisation (100 nM) [7]: 0.6926
- GIP-specific internalisation (100 nM) [7]: 0.1787
- Constitutive internalisation (100 nM) [7]: 0.5139
- Surface expression [7]: 1.204
- Internalisation, +GIP [7]: 57.508
- Internalisation, GIP-only [7]: 14.8294
- Internalisation, Vehicle [7]: 42.6786

B2: E463Q (protein, UniProt P48546 22-466, looked up, variant E463Q)
Gastric inhibitory …: B1 Gastric inhibitory … with V241L, E442Q
- AD293 100 pM cADDis [1]: 34.7191
- AD293 100 nM cADDis [1]: 36.9
- AD293 Surface [2, 8]: 1.191
- AD293 Surface ([2]; paired with cAMP 100 pM): 1.191
- Surface SNAP-GIPR expression ([2]; replicate 1): 1.219
- Surface SNAP-GIPR expression ([2]; replicate 2): 1.021
- Surface SNAP-GIPR expression ([2]; replicate 3): 0.7247
- Surface SNAP-GIPR expression ([2]; replicate 4): 1.851
- Surface SNAP-GIPR expression ([2]; replicate 5): 0.8113
- Surface SNAP-GIPR expression ([2]; replicate 6): 1.148
- Surface SNAP-GIPR expression ([2]; replicate 7): 0.8161
- Surface SNAP-GIPR expression ([2]; replicate 8): 1.203
- Surface SNAP-GIPR expression ([2]; replicate 9): 1.004
- Surface SNAP-GIPR expression ([2]; replicate 10): 0.9721
- Surface SNAP-GIPR expression ([2]; replicate 11): 1.39
- Surface SNAP-GIPR expression ([2]; replicate 12): 1.373
- Surface SNAP-GIPR expression ([2]; replicate 13): 1.65
- Surface SNAP-GIPR expression ([2]; replicate 14): 1.648
- Surface SNAP-GIPR expression ([2]; replicate 15): 1.459
- Surface SNAP-GIPR expression ([2]; replicate 16): 1.416
- Surface SNAP-GIPR expression ([2]; replicate 17): 1.284
- Surface SNAP-GIPR expression ([2]; replicate 18): 1.262
- Surface SNAP-GIPR expression ([2]; replicate 19): 1.404
- Surface SNAP-GIPR expression ([2]; replicate 20): 1.518
- Surface SNAP-GIPR expression ([2]; replicate 21): 1.445
- Surface SNAP-GIPR expression ([2]; replicate 22): 1.187
- Surface SNAP-GIPR expression ([2]; replicate 23): 1.117
- Surface SNAP-GIPR expression ([2]; replicate 24): 1.135
- Surface SNAP-GIPR expression ([2]; replicate 25): 1.182
- Surface SNAP-GIPR expression ([2]; replicate 26): 1.219
- Surface SNAP-GIPR expression ([2]; replicate 27): 0.8928
- Surface SNAP-GIPR expression ([2]; replicate 28): 1.514
- Surface SNAP-GIPR expression ([2]; replicate 29): 0.593
- Surface SNAP-GIPR expression ([2]; replicate 30): 0.9046
- Surface SNAP-GIPR expression ([2]; replicate 31): 0.8556
- Surface SNAP-GIPR expression ([2]; replicate 32): 1.334
- Surface SNAP-GIPR expression ([2]; replicate 33): 1.324
- Surface SNAP-GIPR expression ([2]; replicate 34): 1.052
- Surface SNAP-GIPR expression ([2]; replicate 35): 1.061
- Surface SNAP-GIPR expression ([2]; replicate 36): 1.215
- Surface SNAP-GIPR expression ([2]; replicate 37): 1.115
- Surface SNAP-GIPR expression ([2]; replicate 38): 0.8974
- Surface SNAP-GIPR expression ([2]; replicate 39): 1.265
- Surface SNAP-GIPR expression ([2]; replicate 40): 1.153
- Surface SNAP-GIPR expression ([2]; replicate 41): 1.19
- +GIP internalisation (100 nM) [3]: 0.6116
- GIP-specific internalisation (100 nM) [3]: 0.1296
- Constitutive internalisation (100 nM) [3]: 0.4821
- Internalisation, +GIP [3]: 48.5083
- Internalisation, GIP-only [3]: 10.305
- Internalisation, Vehicle [3]: 38.2033
- AD293 100 pM HTRF [4]: 1.1295
- AD293 100 nM HTRF [4]: 1.311
- Surface expression [5]: 1.282
- INS-1 cAMP (100 nM) [6]: 1.2
- +GIP internalisation (100 nM) [7]: 0.6258
- GIP-specific internalisation (100 nM) [7]: 0.1525
- Constitutive internalisation (100 nM) [7]: 0.4733
- Surface expression [7]: 1.14
- Internalisation, +GIP [7]: 55.318
- Internalisation, GIP-only [7]: 13.3425
- Internalisation, Vehicle [7]: 41.9756
